Results published in IntAct's records for PubMed 25281559.

B1: Casein kinase I homolog HRR25 (Saccharomyces cerevisiae), P29295 (parent)
chain: MDLRVGRKFRIGRKIGSGSFGDIYHGTNLISGEEVAIKLESIRSRHPQLDYESRVYRYLSGGVGIPFIRWFGREGEYNAMVIDLLGPSLEDLFNYCHRRFSFKTVIMLALQMFCRIQYIHGRSFIHRDIKPDNFLMGVGRRGSTVHVIDFGLSKKYRDFNTHRHIPYRENKSLTGTARYASVNTHLGIEQSRRDDLESLGYVLIYFCKGSLPWQGLKATTKKQKYDRIMEKKLNVSVETLCSGLPLEFQEYMAYCKNLKFDEKPDYLFLARLFKDLSIKLEYHNDHLFDWTMLRYTKAMVEKQRDLLIEKGDLNANSNAASASNSTDNKSETFNKIKLLAMKKFPTHFHYYKNEDKHNPSPEEIKQQTILNNNAASSLPEELLNALDKGMENLRQQQPQQQVQSSQPQPQPQQLQQQPNGQRPNYYPEPLLQQQQRDSQEQQQQVPMATTRATQYPPQINSNNFNTNQASVPPQMRSNPQQPPQDKPAGQSIWL
partner: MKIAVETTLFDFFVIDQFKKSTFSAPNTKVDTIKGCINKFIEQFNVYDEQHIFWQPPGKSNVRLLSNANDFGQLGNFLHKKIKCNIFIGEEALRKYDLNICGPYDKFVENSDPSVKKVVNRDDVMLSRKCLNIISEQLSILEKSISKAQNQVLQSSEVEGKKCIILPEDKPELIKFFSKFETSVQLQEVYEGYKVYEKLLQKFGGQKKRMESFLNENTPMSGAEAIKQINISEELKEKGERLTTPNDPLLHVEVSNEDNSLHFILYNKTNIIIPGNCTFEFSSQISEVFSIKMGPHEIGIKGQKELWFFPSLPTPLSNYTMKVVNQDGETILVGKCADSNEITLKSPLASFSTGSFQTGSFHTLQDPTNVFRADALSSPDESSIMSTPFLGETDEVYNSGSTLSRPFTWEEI

Variants of: B1
Details: with atg34_yeast ATG34, Q12292

effect of a mutation on the interaction	Variant
disrupting interaction	K38A
